How the values were obtained:
CCR5 on HEK-CCR5 cells = CCR5 on HEK-CCR5 cells (UniProt P51681); assay: cell-based or functional assay
[1] = target: CCR5-RLuc8 on CHO-CCR5-RLuc8/YFP-CAAX cells (UniProt P51681); assay: cell-based or functional assay

Ca2+ flux signaling at 300 nM on HEK-CCR5 cells (bottom of the scale) (CCR5 on HEK-CCR5 cells)	CCR5 internalization (bystander BRET) at 300 nM (bottom of the scale) [1]	Ca2+ flux signaling at 300 nM on HEK-CCR5 cells (top of the scale) (CCR5 on HEK-CCR5 cells)	CCR5 internalization (bystander BRET) at 300 nM (top of the scale) [1]	Substance
0%	0%			5P12-RANTES reference standard (from UniProt P13501 34-91) (ligand)
		100%	100%	PSC-RANTES reference standard (ligand)
